# From US20210122795A1 (CITY OF HOPE, published 2021)
# Ends that are not written are not given here.
# B1: Peptide 12 (chemically synthesized cyclic peptide) (peptide)
# peptide: CSVLPPFMC
# modifications: also: cyclic peptide, ring type not given here
# notes: Immobilized on a CM5 chip in the SPR; also called Pep12
# B2: Peptide 16 (chemically synthesized cyclic peptide) (peptide)
# peptide: CWSPLPFMC
# modifications: also: cyclic peptide, ring type not given here
# notes: Immobilized on a CM5 chip in the SPR; also called Pep16
# B3: mLcn2 (modified lipocalin2, monomeric) (designed binder)
# chain: QDSTSDLIPAPPLSKVPLQQNFQDNQFHGKWYVVGLAGNRILRDDQHPMNMYATIYELKEDKSYNVTSVISSHKKCEYTIATFVPGSQPGEFTLGNIKSYGDKTSYLVRVVSTDYNQYAVVFFKLAEDNAEFFAITIYGRTKELASELKENFIRFSKSLGLPENHIVFPVPIDQCIDG
# notes: Engineered lipocalin 2; also called monomeric mLCN2
# Tests used:
# [1] = target: B3; test: crystal structures of the peptide-mLcn2 complexes
# [2] = target: T1, CTLA-4-Fc (recombinant bivalent CTLA-4 fused to the human IgG1 Fc) (human, UniProt P16410 36-161, Homodimer through the IgG1 Fc (bivalent); the Fc is left out of the letters.); test: SPR; dimeric CTLA-4-Fc immobilized at medium density on a CM5 chip; analyte 3-1000 nM
# T1 construct: also called dimeric CTLA-4-Fc; CTLA-4 (in the SEC legends); not shown: human IgG1 Fc and any linker of the CTLA-4-Fc fusion
# Description: (§1) FIG. 10A: SPR analysis. Dimeric CTLA-4-Fc was immobilized at medium density to a CM5 chip. A range of 3-1000 nM monomeric mLCN2 (top) and 3-300 nM dimeric mLCN2-Fc (bottom) analytes were used for kinetics analyses. […] Concentration of analytes is 1000; 300; 30; and 3 nM.
# [3] = target: B2; test: SPR; analyte mLcn2 flowed over Peptide16 immobilized on a CM5 chip; analyte mLcn2 flowed over Peptide16 immobilized to a CM5 chip
# Text: FIG. 14A: mLCN2 vs. Pep16. Surface plasmon resonance of analyte mLcn2 flowed over ligand Peptide16 immobilized to a CM5 chip. Representative results are shown from three independent experiments.
# [4] = target: B1; test: SPR; analyte mLcn2-Fc flowed over Peptide12 immobilized on a CM5 chip
# Text: FIG. 14B: mLCN2-Fc vs. Pep12. Surface plasmon resonance of analyte mLcn2-Fc flowed over ligand Peptide12 immobilized to a CM5 chip. Representative results are shown from three independent experiments.
# [5] = target: T1, CTLA-4-Fc (recombinant bivalent CTLA-4 …); test: SPR; dimeric CTLA-4-Fc immobilized at medium density on a CM5 chip; analyte 3-300 nM
# Description: as §1
# T1 sequence (P16410 36-161 limits assumed): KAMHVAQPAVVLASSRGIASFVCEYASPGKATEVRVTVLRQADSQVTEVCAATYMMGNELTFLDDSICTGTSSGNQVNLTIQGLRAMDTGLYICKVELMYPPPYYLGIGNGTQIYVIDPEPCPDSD
binder,measurement,setting,value
B1,binding result,[1],binds
B2,binding result,[1],binds
B3,koff,[2],0.0002 s⁻¹
same,kon,[2],36000 M⁻¹ s⁻¹
same,Kd,[3],4.6 µM
"mLcn2-Fc (unmodified, without N-terminal mask) (Fc fusion, also called dimeric mLCN2-Fc; unmodified mLcn2-Fc; not shown: flexible linker between mLcn2 and Fc; human IgG1 Fc domain) QDSTSDLIPAPPLSKVPLQQNFQDNQFHGKWYVVGLAGNRILRDDQHPMNMYATIYELKEDKSYNVTSVISSHKKCEYTIATFVPGSQPGEFTLGNIKSYGDKTSYLVRVVSTDYNQYAVVFFKLAEDNAEFFAITIYGRTKELASELKENFIRFSKSLGLPENHIVFPVPIDQCIDG",Kd,[4],3.4 µM
same,kon,[5],10000 M⁻¹ s⁻¹
